Source: patent publication US8969530B2, “Anti-clathrin heavy chain monoclonal antibody for inhibition of tumor angiogenesis and growth and application thereof” (Academia Sinica, priority 2011, dated 2015)

How the values were obtained:
MIA PaCa-2 cells [1] = test: EGF and transferrin uptake (internalization) assay; type: cell-based, human; settings: pretreated 50 μg/ml at 37° C.
Method: EGF and Tf uptake assays were carried out using a fluorescence-based approach, as previously described (26). Cells were washed with serum-free medium, incubated in 1% BSA in serum-free medium at 37° C., and pretreated with Pa65-2 or NM-IgG (50 μg/ml) at 37° C. They were then incubated with or without Alex 555-EGF (1 μg/ml, INVITROGEN™) or Alex 555-transferrin (50 μg/ml) at 37° C. or 4° C. The cells were imaged using a Leica TCS SP confocal microscope (Leica).

MIA PaCa-2 cells [2] = test: Apoptosis assay (FLICA caspase activity); type: cell-based, human; settings: 24 h
Method: Apoptosis of cultured cells was verified through the detection of caspase activity using sulforhodamine FLICA apoptosis detection kit (Immunochemistry Technologies). Cells in 96-well culture plates were treated with Pa65-2 or NM-IgG for 24 h. After incubating with FLICA, cells was read at ex/era of 550/595 nm with fluorescence plate reader (Molecular Devices).

[3] = tested on: pancreatic adenocarcinoma cell lines MIA PaCa-2 and AsPC-1; test: ELISA and Western blot binding screen on pancreatic adenocarcinoma cell lines; type: cell-based, human; settings: MIA PaCa-2, AsPC-1 versus normal HUVEC, NNM, CCD-1112Sk
Method: (§1) Cells were extracted with RIPA buffer and the supernatants were immunoprecipitated using either anti-CHC antibody, Pa65-2, mAb X-22 (Affinity), or anti-HIF-1α antibody (BD), then analyzed by immunoblotting. The signals were developed using enhanced chemiluminescence reagents (ECL) (Thermo).
Cells were cultured in 96-well polystyrene plates for 3 days and then fixed with 2% paraformaldehyde. After blocking and washing twice with PBS/0.1 % Tween 20 (PBST0.1), the hybridoma supernatants were added and the plates were incubated for 2 h at room temperature. This was followed by washing and incubating with horseradish peroxidase (HRP)-conjugated goat anti-mouse IgG for 1 h. The colorimetric reaction was developed with the substrate ortho-phenylene-diamine (OPD) according to the manufacturer's instructions (Sigma), and was stopped by adding 3 N HCl. Absorbance at 490 nm was measured using a microplate reader. Each control and test group was tested in triplicate. Each experiment was repeated at least three times. […] The stained cells were washed twice and fluorescence signals were measured using a FACScan (BD).
(§2) 3×10^3 cells were cultured into each well of 96-well polystyrene plates for 3 days and fixed with 2% paraformaldehyde. […] Absorbance at 490 nm was measured using a microplate reader. […]

HUVECs = test: Apoptosis in HUVEC by TUNEL staining; type: cell-based, human
Method: (§3) CD31 staining and TUNEL assays were carried out as described previously. The slides were then visualized under a fluorescent microscope and analyzed with MetaMorph software.

[4] = tested on: blood vessels of human pancreatic cancer tissues; test: Immunofluorescent co-staining of Pa65-2 and UEA-1 in pancreatic cancer tissue
Method: The human pancreatic cancer gene expression arrays (Origene) were analyzed by an ABI9600 thermocycler (Applied Biosystems). Tissue arrays were purchased from Pantomics Inc. Tissue sections were stained with antibodies specific for CHC (Pa65-2), VEGF (GeneTex), HIF-1α (Millipore), NM-IgG, and UEA-1-FITC (Vector). Quantification of DAB intensity was by HistoQuest software (TissueGnostics). The protocol was approved by the institutional Review Board of Human Subjects Research Ethics Committee of Academia Sinica (Taipei).

[5] = tested on: MIA PaCa-2-derived pancreatic cancer xenografts; test: Antitumor efficacy of Pa65-2 in pancreatic cancer xenografts; type: in vivo, NOD/SCID mice
Method: All animal experiments were performed as per the guidelines of the National Laboratory Animal Center. The protocol was approved by the Committee on the Ethics of Animal Experiments of Academia Sinica (Taipei). A xenograft model was generated by injecting NOD/SCID mice with MIA PaCa-2 cells transduced with either CHC shRNA or control vector. The two kinds of transduced cells were injected into different lateral sides of the hind limbs of eight animals at the same time. For analysis of antitumor efficacy of Pa65-2, NOD/SCID mice bearing MIA PaCa-2-derived pancreatic cancer xenografts (˜50 mm^3) were intravenously injected in the tail vein with Pa65-2, or gemcitabine, or NM-IgG, or equivalent
volumes of PBS. Tumors were measured by calipers every three days, and mice were observed routinely for weight loss as a symptom of drug toxicity. The tumor volumes were calculated as length×(width)^2×0.52. Animals were treated following the guidelines established by Academia Sinica (Taipei).
as §3

[6] = tested on: HIF-1α expression and VEGF secretion in MIA PaCa-2 cells; test: Western blot of HIF-1α expression and VEGF secretion under DFX hypoxia; type: cell-based, human; settings: DFX 100 μM, 50 μg/ml, 48 h
Method: as §1
For hypoxia experiments, MIA PaCa-2 cells were grown in a Ruskinn Hypoxic Chamber (APM-50D, 18 Astec, Japan) and treated with either 1% O2, 5% CO2 for 18 h, or given DFX, deferoxamine (100 μM, Sigma) treatment for 5 or 16 h. For proteasome inhibitor treatment, MG132 (10 μM, Sigma) was added to culture medium then incubated 5 to 17 h.

MIA PaCa-2 cells [7] = test: Binding of Pa65-2 to cells by ELISA, flow cytometry and immunofluorescence; type: cell-based, human; settings: flow cytometry, immunofluorescent analyses
Method: Cells were cultured in 96-well polystyrene plates for 3 days and then fixed with 2% paraformaldehyde. After blocking and washing twice with PBS/0.1 % Tween 20 (PBST0.1), the hybridoma supernatants were added and the plates were incubated for 2 h at room temperature. This was followed by washing and incubating with horseradish peroxidase (HRP)-conjugated goat anti-mouse IgG for 1 h. The colorimetric reaction was developed with the substrate ortho-phenylene-diamine (OPD) according to the manufacturer's instructions (Sigma), and was stopped by adding 3 N HCl. Absorbance at 490 nm was measured using a microplate reader. Each control and test group was tested in triplicate. Each experiment was repeated at least three times. To analyse binding, cells (1×10^5 cells per tube) were prepared, washed, centrifuged, and resuspended in 100 μl of PBS/1% FCS containing Pa65-2 or NM-IgG. Cells were incubated at 4° C. for 1 h, washed twice with PBS/1% FCS and stained with […] isothiocyanate (FITC)-labeled goat anti-mouse IgG at 4° C. for 20 min. The stained cells were washed twice and fluorescence signals were measured using a FACScan (BD). […]
as §2

B1: Pa65-2: monoclonal antibody that recognizes human clathrin heavy chain (CHC); VH SEQ ID NO: 2, VL SEQ ID NO: 3 (antibody, listed as Homo sapiens, V domains shown)
VH: EVKLVESGGGLVKPGGSLNISCAASGFTFSNYVMSWVRQTPEKRLEWVATISSGDNYMYYPDSVKGRFTISSDNAKNTLFLQMSSLRSEDTALYYCARHFDNYEGNSMDYWGQGTSVTVSSAKTTPPSDYPLA
VL: DIVLTQSPATLSVTPGDSVSLSCRASQSIRSNLHWYQQKSHESPRLLIKYASQSISGIPSRFSGSGSGTDFILSINSVATEDFGVYFCQQSNSWPLTFGAGTKLELKRADAAPTVS
- EGF uptake (MIA PaCa-2 cells [1]; Alex 555-EGF 1 μg/ml): blocked
- transferrin uptake (MIA PaCa-2 cells [1]; Alex 555-transferrin 50 μg/ml): blocked
- cell apoptosis (MIA PaCa-2 cells [2]): induced cell apoptosis
- binding affinity to pancreatic cancer cell lines [3]: strong binding affinity
- apoptosis in HUVECs (HUVECs): induced apoptosis
- colocalization of Pa65-2 antigen with endothelial cell marker UEA-1 [4]: colocalized
- average tumor volume smaller than the control groups ([5]; 10 mg/kg i.v. every three days, day 36, n=6, P<0.05): about 2 fold
- blood vessels in tumor sections ([5]; CD31 staining, P<0.05): decreased
- inhibitory effect on tumor growth compared with gemcitabine ([5]; Pa65-2 10 mg/kg versus gemcitabine 15 mg/kg, i.v.): equivalent effects
- apoptotic cells in tumor sections ([5]; TUNEL, n=6, P<0.01): increased
- hypoxia-induced HIF-1α expression [6]: suppressed
- VEGF secretion ([6]; culture media): suppressed
- recognition of MIA PaCa-2 cells (MIA PaCa-2 cells [7]): specifically recognize MIA PaCa-2 cells
